For three substances, Kd, koff and kon results are on record in patent publication US20220267751A1.

Sequence of native plasmin (purchased from Haematologic Technologies) (P00747 97-580 limits assumed): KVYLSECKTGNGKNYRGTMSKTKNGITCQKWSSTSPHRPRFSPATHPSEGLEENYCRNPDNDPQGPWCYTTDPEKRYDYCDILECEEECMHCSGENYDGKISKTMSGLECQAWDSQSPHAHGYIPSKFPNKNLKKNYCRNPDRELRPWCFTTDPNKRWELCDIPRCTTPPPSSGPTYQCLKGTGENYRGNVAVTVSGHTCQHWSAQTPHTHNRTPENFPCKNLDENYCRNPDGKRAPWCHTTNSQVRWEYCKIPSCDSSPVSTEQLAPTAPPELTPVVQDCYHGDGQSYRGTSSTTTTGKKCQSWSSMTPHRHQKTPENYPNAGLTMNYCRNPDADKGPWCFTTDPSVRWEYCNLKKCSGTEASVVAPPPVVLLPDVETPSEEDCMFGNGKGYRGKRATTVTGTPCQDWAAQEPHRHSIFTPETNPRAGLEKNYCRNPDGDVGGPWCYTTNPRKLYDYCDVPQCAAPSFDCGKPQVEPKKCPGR
Sequence of native plasmin (purchased from Haematologic Technologies) (P00747 581-810 limits assumed): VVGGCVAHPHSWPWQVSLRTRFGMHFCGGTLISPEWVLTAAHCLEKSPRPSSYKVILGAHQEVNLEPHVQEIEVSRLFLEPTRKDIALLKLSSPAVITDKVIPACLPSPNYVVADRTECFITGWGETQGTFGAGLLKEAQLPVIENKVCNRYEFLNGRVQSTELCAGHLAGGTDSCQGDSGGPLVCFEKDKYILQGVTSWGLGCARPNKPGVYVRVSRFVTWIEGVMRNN
Sequence of recombinant plasminogen (P00747 20-810 limits assumed): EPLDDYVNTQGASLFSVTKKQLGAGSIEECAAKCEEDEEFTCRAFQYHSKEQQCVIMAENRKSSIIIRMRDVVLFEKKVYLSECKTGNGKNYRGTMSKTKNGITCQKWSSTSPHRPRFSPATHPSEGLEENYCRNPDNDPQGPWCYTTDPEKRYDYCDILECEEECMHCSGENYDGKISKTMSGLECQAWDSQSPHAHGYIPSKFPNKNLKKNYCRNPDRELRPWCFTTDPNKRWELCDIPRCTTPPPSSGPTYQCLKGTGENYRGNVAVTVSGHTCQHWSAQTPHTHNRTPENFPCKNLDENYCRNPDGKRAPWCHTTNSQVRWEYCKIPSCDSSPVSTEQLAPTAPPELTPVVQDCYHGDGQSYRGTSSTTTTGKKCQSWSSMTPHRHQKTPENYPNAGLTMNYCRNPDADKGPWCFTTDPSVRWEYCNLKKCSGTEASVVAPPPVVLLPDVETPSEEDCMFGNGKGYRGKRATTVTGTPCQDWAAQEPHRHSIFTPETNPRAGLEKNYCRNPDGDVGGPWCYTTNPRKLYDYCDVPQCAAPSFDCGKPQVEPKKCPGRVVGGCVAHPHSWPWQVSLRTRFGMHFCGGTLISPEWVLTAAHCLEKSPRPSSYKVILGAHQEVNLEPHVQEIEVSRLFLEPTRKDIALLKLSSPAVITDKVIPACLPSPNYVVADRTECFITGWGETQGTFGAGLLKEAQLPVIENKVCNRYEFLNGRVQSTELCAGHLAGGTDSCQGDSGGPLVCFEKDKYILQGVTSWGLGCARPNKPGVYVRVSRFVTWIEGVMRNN
Sequence of native plasminogen (purchased from Merck, purified from human plasma) (P00747 20-810 limits assumed): as above

This assay concerns the target recombinant streptokinase from Streptococcus pyrogenes (so in the source) (Streptococcus pyrogenes (so in the source)). Nature of the assay: SPR (Biacore T200), SK on Ni2+-NTA chip, 1:1 Langmuir model. In general terms: Surface plasmon resonance follows binding to a sensor surface in real time, without labels.
Take “native plasminogen (purchased from Merck, purified from human plasma) (from UniProt P00747 20-810)”: the Kd is 1.4 nM, the koff came to 0.00032 s⁻¹ and the kon was determined as 230000 M⁻¹ s⁻¹.
Taken in the same sequence, the figures for “native plasmin (purchased from Haematologic Technologies) (from UniProt P00747 97-580; P00747 581-810) (enzyme)” were 0.33 nM, 0.0023 s⁻¹ and 7.1e+06 M⁻¹ s⁻¹.
Taken in the same sequence, the figures for “recombinant plasminogen (from UniProt P00747 20-810)” were 1.4 nM, 0.00036 s⁻¹ and 270000 M⁻¹ s⁻¹.

The term Kd denotes the concentration at which binding is half-saturated. For orientation: koff means a measure of how fast the partners let go of each other. By kon is commonly meant a measure of how fast the partners come together.
